One block for each molecule: values may come before it.
What was measured:
[1] = molecular target: LeuT-AA, dimer interface mutant of LeuT (F488A and Y489A), C-terminally GFP-tagged
[2] = molecular target: TrkA^ECD+TM, truncation mutant of TrkA containing the extracellular and transmembrane domains, C-terminally GFP-tagged
[3] = molecular target: TrkA^ECD+TM, truncation mutant of TrkA containing the extracellular and transmembrane domains, C-terminally GFP-tagged; remark: listed apart in the source
[4] = molecular target: TrkA^TM, truncation mutant of TrkA containing only the transmembrane domain, C-terminally GFP-tagged
[5] = molecular target: sugar transporter SemiSWEET, C-terminally GFP-tagged
[6] = molecular target: T1, potassium ion channel KcsA, C-terminally GFP-tagged, P0A334; details: remark: other sources report otherwise
T1 chain: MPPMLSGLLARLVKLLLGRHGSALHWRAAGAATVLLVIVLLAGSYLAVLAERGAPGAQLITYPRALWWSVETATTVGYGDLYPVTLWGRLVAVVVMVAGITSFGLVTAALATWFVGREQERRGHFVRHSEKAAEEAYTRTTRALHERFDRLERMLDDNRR

percent dimer [1]: 36%
percent monomer [1]: 53%
Molecule: LeuT-AA, dimer interface mutant of LeuT (F488A and Y489A), C-terminally GFP-tagged (natural protein)

percent dimer (NGF-treated, fraction 1) [2]: 47%
percent higher-order oligomers (NGF-treated, fraction 1) [2]: 30%
percent monomer (NGF-treated, fraction 1) [2]: 22%
percent dimer (no NGF) [3]: 40%
percent higher-order oligomers (no NGF) [3]: 5%
percent monomer (no NGF) [3]: 55%
Molecule: TrkA^ECD+TM, truncation mutant of TrkA containing the extracellular and transmembrane domains, C-terminally GFP-tagged (domain or fragment)

percent dimer (no NGF) [4]: 35%
percent higher-order oligomers (no NGF) [4]: 2%
percent monomer (no NGF) [4]: 60%
Molecule: TrkA^TM, truncation mutant of TrkA containing only the transmembrane domain, C-terminally GFP-tagged (domain or fragment)

stoichiometry N [5]: 2
Molecule: sugar transporter SemiSWEET, C-terminally GFP-tagged (natural protein)

stoichiometry N [6]: 4
B1: potassium ion channel KcsA, C-terminally GFP-tagged, P0A334 1-160 (natural protein)
chain: MPPMLSGLLARLVKLLLGRHGSALHWRAAGAATVLLVIVLLAGSYLAVLAERGAPGAQLITYPRALWWSVETATTVGYGDLYPVTLWGRLVAVVVMVAGITSFGLVTAALATWFVGREQERRGHFVRHSEKAAEEAYTRTTRALHERFDRLERMLDDNRR

Source: article PMC10981947
